Biological target: rat GluA2igQ with a His8/Myc tag between residues 22 and 23 (rat)
Assay: AFM imaging of receptor-antibody complexes; receptors isolated by immunoaffinity chromatography from the total cellular pool, incubated with subunit- or tag-specific antibodies, adsorbed to mica at 0.04 nM, imaged in air in tapping mode; volumes of decorated particles and angles between two bound antibodies

stoichiometry N: 4
Substance: rat GluA2igQ with a His8/Myc tag between residues 22 and 23 (receptor)
